Assay [1] has as its target T1, murine OX40 (murine, UniProt P47741 20-272).
T1 construct: also called muOX40
T1 sequence: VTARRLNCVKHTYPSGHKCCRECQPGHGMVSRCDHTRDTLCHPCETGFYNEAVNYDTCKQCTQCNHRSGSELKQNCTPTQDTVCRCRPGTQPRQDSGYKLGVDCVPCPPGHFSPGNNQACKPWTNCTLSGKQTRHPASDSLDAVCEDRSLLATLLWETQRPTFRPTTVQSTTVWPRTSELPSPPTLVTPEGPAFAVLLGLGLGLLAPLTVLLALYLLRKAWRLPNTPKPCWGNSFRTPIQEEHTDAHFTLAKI
Description: flow cytometry, activated murine OX40+ CD4+ T cells. As to the method:
(§1) For labeling cells were harvested, washed with pre-warmed (37° C.) DPBS and adjusted to a cell density of 1×10⁷ cells/mL in DPBS. eFluor670 cell proliferation dye (eBioscience, Cat.-No. 65-0840-85) was added to the suspension of naïve splenocytes at a final concentration of 2.5 μM and a final cell density of 0.5×10⁷ cells/mL in DPBS. Cells were then incubated for 10 min at room temperature in the dark. To stop labeling reaction, 4 mL heat inactivated FBS were added and cells were washed three times with T cell medium. A mixture of 1×10⁵ resting eFluor670 labeled splenocytes and 1×10⁵ unlabeled activated splenocytes were then added to wells of round-bottomed suspension 96-well plates (Greiner bio-one, cellstar, Cat. No. 650185).
(§2) For discrimination between live and dead cells, samples were stained with Zombie Aqua Viability Dye (Biolegend, Cat. No. 423102) in DPBS for 10 minutes at room temperature. Cells were then washed once with FACS buffer and subsequently stained for 90 minutes at 4° C. in the dark in 50 μL/well 4° C. […] After washing three times with excess FACS buffer, cells were stained for 30 minutes at 4° C. in the dark in 25 μL/well 4° C.
(§3) Plates were finally resuspended in 85 μL/well FACS buffer and acquired the same day using 4-laser LSR-II cytometer (BD Bioscience with DIVA software).

A further assay has as its target T2, murine FAP (murine, UniProt P97321 1-761).
T2 construct: whole, on cells; CT26muFAP served as the muEpCAM-negative specificity control cell line; also called muFAP; CT26muFAP cells
T2 sequence (looked up): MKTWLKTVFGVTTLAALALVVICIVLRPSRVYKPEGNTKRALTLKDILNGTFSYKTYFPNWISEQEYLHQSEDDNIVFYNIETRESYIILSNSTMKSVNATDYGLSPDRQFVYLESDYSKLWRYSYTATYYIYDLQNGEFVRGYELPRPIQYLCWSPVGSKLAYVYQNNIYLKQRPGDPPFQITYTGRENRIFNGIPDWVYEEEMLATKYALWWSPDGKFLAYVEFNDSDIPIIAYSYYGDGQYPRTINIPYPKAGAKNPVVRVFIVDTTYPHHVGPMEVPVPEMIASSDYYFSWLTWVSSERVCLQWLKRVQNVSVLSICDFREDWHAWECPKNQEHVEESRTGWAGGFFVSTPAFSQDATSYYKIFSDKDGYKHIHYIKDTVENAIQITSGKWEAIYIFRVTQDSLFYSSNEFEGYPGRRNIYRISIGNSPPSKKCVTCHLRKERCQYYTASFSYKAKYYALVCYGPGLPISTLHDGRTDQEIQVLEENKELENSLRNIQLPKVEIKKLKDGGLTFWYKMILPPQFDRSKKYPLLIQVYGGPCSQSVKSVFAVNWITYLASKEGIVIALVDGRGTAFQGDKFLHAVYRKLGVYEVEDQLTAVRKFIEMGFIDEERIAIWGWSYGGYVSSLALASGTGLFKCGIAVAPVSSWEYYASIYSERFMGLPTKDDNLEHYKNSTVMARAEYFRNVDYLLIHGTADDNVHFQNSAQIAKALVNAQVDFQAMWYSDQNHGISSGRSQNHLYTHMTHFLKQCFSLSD
Put plainly: flow cytometry on CT26muFAP cells, which stably express murine FAP. As to the method: (§4) The binding to cell surface murine EpCAM was analysed using mouse EpCAM-positive CT26muEpCAM c125 cells, which stably expresses murine EpCAM. The specificity of binding was analysed by determination of binding to muEpCAM-negative cell line CT26muFAP, which stably expresses murine FAP.
(§5) For analysis of binding of the antigen binding molecules, 0.5×10⁵ CT26muEpCAM or 0.5×10⁵ CT26muFAP cells were added to wells of round-bottomed suspension cell 96-well plates (greiner bio-one, cellstar, Cat. No. 650185). For discrimination of live and dead cells, samples were stained with Zombie Aqua Viability Dye (Biolegend, Cat. No 423102) in PBS for 10 minutes at room temperature. Cells were then washed once with FACS buffer and subsequently stained for 90 minutes at 4° C. in the dark in 50 μL/well 4° C.
(§6) Plates were finally resuspended in 85 μL/well FACS-buffer and acquired the same day using 4-laser LSR-II cytometer (BD Bioscience with DIVA software).
Background: Flow cytometry measures light scatter and fluorescence of single cells or particles in a stream.

In the next assay the target is T3, murine EpCAM (murine, UniProt Q99JW5 24-315).
T3 construct: Stably expressed on CT26muEpCAM cl25 cells; also called muEpCAM; CT26muEpCAM cells
T3 sequence: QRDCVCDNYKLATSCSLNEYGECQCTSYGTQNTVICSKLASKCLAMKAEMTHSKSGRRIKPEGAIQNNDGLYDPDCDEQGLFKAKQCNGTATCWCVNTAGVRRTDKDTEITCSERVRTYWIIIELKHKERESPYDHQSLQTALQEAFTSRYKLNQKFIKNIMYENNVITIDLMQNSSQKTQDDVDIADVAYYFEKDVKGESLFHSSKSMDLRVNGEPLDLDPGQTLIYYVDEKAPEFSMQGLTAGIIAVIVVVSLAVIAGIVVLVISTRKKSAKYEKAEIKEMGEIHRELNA
Put plainly: flow cytometry, muEpCAM+ CT26muEpCAM cells. Here is the method:
as §4, §5, §6

The target in assay [2] is T1, murine OX40. Put plainly: flow cytometry, activated murine OX40+ CD8+ T cells. As to the method: as §1, §2, §3

A word on the EC50: it is the concentration that produces a half-maximal response. Read a high EC50 as a less potent agent.

B1: bispecific, tetravalent anti-murine OX40, monovalent anti-murine EpCAM 4+1 molecule (muOX40 OX86/muEpCAM G8.8 DAPG 4+1) (bispecific antibody, mouse IgG1, kappa)
heavy 1: QVQLKESGPGLVQPSQTLSLTCTVSGFSLTGYNLHWVRQPPGKGLEWMGRMRYDGDTYYNSVLKSRLSISRDTSKNQVFLKMNSLQTDDTAIYYCTRDGRGDSFDYWGQGVMVTVSSAKTTPPSVYPLAPGSAAQTNSMVTLGCLVKGYFPEPVTVTWNSGSLSSGVHTFPAVLQSDLYTLSSSVTVPSSTWPSQTVTCNVAHPASSTKVDKKIVPRDCGGGGSGGGGSQVQLKESGPGLVQPSQTLSLTCTVSGFSLTGYNLHWVRQPPGKGLEWMGRMRYDGDTYYNSVLKSRLSISRDTSKNQVFLKMNSLQTDDTAIYYCTRDGRGDSFDYWGQGVMVTVSSAKTTPPSVYPLAPGSAAQTNSMVTLGCLVKGYFPEPVTVTWNSGSLSSGVHTFPAVLQSDLYTLSSSVTVPSSTWPSQTVTCNVAHPASSTKVDKKIVPRDCGCKPCICTVPEVSSVFIFPPKPKDVLTITLTPKVTCVVVAISKDDPEVQFSWFVDDVEVHTAQTKPREEQINSTFRSVSELPIMHQDWLNGKEFKCRVNSAAFGAPIEKTISKTKGRPKAPQVYTIPPPKEQMAKDKVSLTCMITNFFPEDITVEWQWNGQPAENYDNTQPIMDTDGSYFVYSDLNVQKSNWEAGNTFTCSVLHEGLHNHHTEKSLSHSPGGGGGSGGGGSGGGGSGGGGSDIQMTQSPASLSASLGETVSIECLASEGISNDLAWYQQKSGKSPQLLIYATSRLQDGVPSRFSGSGSGTRYSLKISGMQPEDEADYFCQQSYKYPWTFGGGTKLELK
heavy 2: QVQLKESGPGLVQPSQTLSLTCTVSGFSLTGYNLHWVRQPPGKGLEWMGRMRYDGDTYYNSVLKSRLSISRDTSKNQVFLKMNSLQTDDTAIYYCTRDGRGDSFDYWGQGVMVTVSSAKTTPPSVYPLAPGSAAQTNSMVTLGCLVKGYFPEPVTVTWNSGSLSSGVHTFPAVLQSDLYTLSSSVTVPSSTWPSQTVTCNVAHPASSTKVDKKIVPRDCGGGGSGGGGSQVQLKESGPGLVQPSQTLSLTCTVSGFSLTGYNLHWVRQPPGKGLEWMGRMRYDGDTYYNSVLKSRLSISRDTSKNQVFLKMNSLQTDDTAIYYCTRDGRGDSFDYWGQGVMVTVSSAKTTPPSVYPLAPGSAAQTNSMVTLGCLVKGYFPEPVTVTWNSGSLSSGVHTFPAVLQSDLYTLSSSVTVPSSTWPSQTVTCNVAHPASSTKVDKKIVPRDCGCKPCICTVPEVSSVFIFPPKPKDVLTITLTPKVTCVVVAISKDDPEVQFSWFVDDVEVHTAQTKPREEQINSTFRSVSELPIMHQDWLNGKEFKCRVNSAAFGAPIEKTISKTKGRPKAPQVYTIPPPKKQMAKDKVSLTCMITNFFPEDITVEWQWNGQPAENYKNTQPIMKTDGSYFVYSKLNVQKSNWEAGNTFTCSVLHEGLHNHHTEKSLSHSPGGGGGSGGGGSGGGGSGGGGSEVQLAESGGGLVQPGRSMKLSCAASGFTFSNFPMAWVRQAPTKGLEWVATISTSGGSTYYRDSVKGRFTISRDNAKSTLYLQMNSLRSEDTATYYCTRTLYILRVFYFDYWGQGVMVTVSS
light: DIVMTQGALPNPVPSGESASITCRSSQSLVYKDGQTYLNWFLQRPGQSPQLLTYWMSTRASGVSDRFSGSGSGTYFTLKISRVRAEDAGVYYCQQVREYPFTFGSGTKLEIKRADAAPTVSIFPPSSEQLTSGGASVVCFLNNFYPKDINVKWKIDGSERQNGVLNSWTDQDSKDSTYSMSSTLTLTKDEYERHNSYTCEATHKTSTSPIVKSFNRNEC
notes: muIgG1 DAPG with DDKK heterodimerisation; also called 4+1 muEpCAM; 4 + 1 anti-muOX40, anti-muEpCAM
On to B1, for which the results for the concentration giving a half-maximal response (EC50) in the assay with murine OX40 [1], with murine EpCAM and in the assay with murine OX40 [2] were 1.47 nM, 82.5 nM and 0.82 nM, respectively. For the same molecule, the binding result in the assay with murine FAP was “no binding”.

These data come from patent publication US20200231691A1 (Hoffmann-La Roche, published 2020).
